From patent publication US5001064A, “Phosphatidylinositol 4-kinase” (Washington University, priority 1988, dated 1991)

Substrate: Nc1ncnc2c1ncn2[C@@H]1O[C@H](COP(=O)(O)OP(=O)(O)OP(=O)(O)O)[C@@H](O)[C@H]1O
Test: PtdIns 4-kinase activity assay: kinetic parameters, specific activity, pH optimum
Format: biochemical, bovine
Details: other: purified enzyme, pH 7.4 (Tris-HCl), double-reciprocal plot, 30.0 °C
Description: PtdIns 4-kinase activity was assayed in 60 μl at 30° C. in 20 mM BisTris-HCl (pH 7.0), 10 mM MgCl2, 1.0% Triton X-100, 0.25 mg/ml phosphatidylinositol, and 150 μM ATP (1.25 μCi[-^32 P]ATP), unless otherwise noted. The reaction was terminated by the addition of 12 μl of cold HCl, 120 μl of cold methanol, 150 μl of chloroform, and 40 μl of H2 O. The extracted samples were centrifuged at 12,000 × g for 1 min. and the aqueous layer removed and discarded. When needed, the organic phase was washed with 40 μl of cold methanol and 40 μl of cold 1.0 N HCl, centrifuged at 12,000 × g, and the aqueous layer was removed. The organic phase was then dried under vacuum in a Savant speed-vac, resuspended in 40 μl of chloroform/methanol (2:1), and chromatographed on potassium oxalate-impregnated Silica Gel 60 thin layer chromatography plates (TLC). The solvent system used consisted of chloroform/methanol/ammonium hydroxide/water (51:39.6:3:8.4). […] The reaction product, phosphatidylinositol 4-phosphate, was visualized by autoradiography, and the corresponding area of the TLC plate was scraped and quantitated by Cherenkov counting. […]
In order to optimize the assay of this enzyme, the pH optimum for Ptdlns 4-kinase was determined. […]

B1: PtdIns 4-kinase (Bos taurus) (protein)
chain: MDETSPLVSPERAQPPDYTFPSGSSAHFPQVPGGAVRVAAAAGPVSSPPGSPGHDRERQPLLDRARGAAAQGQTQTVAAQAQALAAQAAAAAHAAQAHRERNEFPEDPEFEAVVRQAELAIERGIFPERIYQGSSGSYFVKDPQGKIIAVFKPKNEEPYGQLNPKWTKWLQKLCCPCCFGRDCLVLNQGYLSEAGASLVDQKLELNIVPRTKVVYLASETFNYSAIDRVKSRGKRLALEKVPKVGQRFNRIGLPPKVGSFQLFVESYKDADYWLRRFEAEPLPENTNRQLLLQFERLVVLDYIIRNTDRGNDNWLIKYDCPMDSSNSRDTDWVVVKEPVIKVAAIDNGLAFPLKHPDSWRAYPFYWAWLPQAKVPFSQEIKDLILPKISDPNFVKDLEEDLYELFKKDPGFDRGQFHKQIAVMRGQILNLTQALKDNKCPLHLVQMPPVIVETARSHQRSSSESYTQSFQSRKPFFSWW
notes: It constitutes the major PtdIns 4-kinase activity of bovine uteri; from tissue; host or cells: bovine uterus (acetone powder, purified over ammonium sulfate, Mono Q, S-Sepharose, Mono Q, Mono P and hydroxylapatite)
- Km: 18 µM
